Key:
human IL2Ra = target: T1, human IL2Ra (human, UniProt P01589 22-240, limits assumed); assay: ELISA on coated IL2Ra, signal ratio to isotype control TPP-10159 at 3.3E-7 M antibody
T1 construct: coated on the ELISA plate; also called IL-2 receptor alpha
T1 sequence (looked up): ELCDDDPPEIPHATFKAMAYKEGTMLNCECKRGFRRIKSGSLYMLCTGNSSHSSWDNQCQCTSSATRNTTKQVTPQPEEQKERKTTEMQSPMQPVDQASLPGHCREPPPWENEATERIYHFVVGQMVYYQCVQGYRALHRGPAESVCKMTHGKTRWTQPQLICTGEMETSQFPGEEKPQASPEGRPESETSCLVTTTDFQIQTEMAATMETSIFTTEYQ

human IL-11 [1] = target: T2, human IL-11 (human, UniProt P20809 22-199); assay: cell-based or functional assay
T2 sequence: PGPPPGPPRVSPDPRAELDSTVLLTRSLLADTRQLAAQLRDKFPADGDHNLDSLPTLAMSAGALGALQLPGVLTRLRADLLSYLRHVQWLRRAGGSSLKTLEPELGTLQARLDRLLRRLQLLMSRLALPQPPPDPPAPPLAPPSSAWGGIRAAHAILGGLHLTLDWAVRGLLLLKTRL

rat IL-11 [2] = target: T3, rat IL-11 (rat, UniProt Q99MF5 22-199); assay: cell-based or functional assay
T3 sequence: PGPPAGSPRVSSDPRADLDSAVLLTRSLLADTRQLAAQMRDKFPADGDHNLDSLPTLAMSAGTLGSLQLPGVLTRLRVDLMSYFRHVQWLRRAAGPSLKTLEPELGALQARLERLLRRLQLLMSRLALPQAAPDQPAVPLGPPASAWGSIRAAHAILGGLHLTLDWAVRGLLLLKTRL

murine IL-11 [3] = target: T4, murine IL-11 (mouse, UniProt P47873 22-199); assay: cell-based or functional assay
T4 sequence: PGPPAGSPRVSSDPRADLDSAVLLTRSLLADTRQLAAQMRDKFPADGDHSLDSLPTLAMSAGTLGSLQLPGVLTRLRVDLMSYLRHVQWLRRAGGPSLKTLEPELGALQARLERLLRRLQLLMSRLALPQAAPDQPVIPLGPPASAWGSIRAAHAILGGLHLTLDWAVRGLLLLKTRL

cynomolgus IL-11 [4] = target: T5, cynomolgus IL-11 (cynomolgus, UniProt P20808 22-199); assay: cell-based or functional assay
T5 sequence: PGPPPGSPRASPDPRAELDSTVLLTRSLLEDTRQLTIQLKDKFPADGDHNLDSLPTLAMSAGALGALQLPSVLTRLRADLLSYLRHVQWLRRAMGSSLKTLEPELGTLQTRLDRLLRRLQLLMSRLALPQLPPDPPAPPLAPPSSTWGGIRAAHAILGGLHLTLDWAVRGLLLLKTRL

human IL-11 [5] = target: T2, human IL-11; assay: SPR (Biacore), 37 C, antibody captured via anti-Fc, IL-11 as analyte
Method: (§1) To assess the binding kinetics and affinity of anti-IL-11 bispecific antibodies as well as their species cross-reactivity profile, binding assays were conducted using surface plasmon resonance (SPR). […] Antibodies were captured either via anti-human Fc IgGs (“Human antibody capture kit”, Order No. BR100839, Cytiva) or via anti-mouse Fc IgGs (“Mouse antibody capture kit, Order No. BR100383, Cytiva) covalently amine coupled to a Series S CM5 sensor chip (Cytiva) depending on the isotype. The amine coupling was carried out according to the manufacturer's instructions using 1-ethyl-3-(3-dimethylaminopropyl) carbodiimide hydrochloride (EDC), N-hydroxysuccinimide (NHS) and ethanolamine HCl, pH 8.5 (“Amine Coupling Kit” BR-1000-50, Cytiva.). Human, mouse, cynomolgus or rat IL-11 was used as analyte at several dilutions within the concentration range from 0.05-200 nM. For binding assays with only one concentration 200 nM IL-11 was used. The sensor surface was regenerated with glycine pH 1.7 after each antigen injection. Obtained sensorgrams were double referenced (subtraction of reference flow cell signal and buffer injection) and were fitted to a 1:1 Langmuir binding model to derive kinetic data using the Biacore T200 Evaluation software or the Biacore Insight software.
(§2) If no value is reported, there was either no binding or very low binding and multiphasic binding behavior.

rat IL-11 [6] = target: T3, rat IL-11; assay: as above
Method: as §1, §2

murine IL-11 [7] = target: T4, murine IL-11; assay: as above
Method: as §1, §2

cynomolgus IL-11 [8] = target: T5, cynomolgus IL-11; assay: as above
Method: as §1, §2

B1: TPP-29519 (antibody, mouse IgG1)
heavy: QVQLVESGGGVVQPGRSLRLSCAASGFTFSHYDMHWVRQAPGKGLEWVAVISYHGSVKFYADSVKGRFTISRDNSKNTLYLQMNSLRAEDTAVYYCARTPGFHFDYWGQGTLVTVSSAKTTPPSVYPLAPGSAAQTNSMVTLGCLVKGYFPEPVTVTWNSGSLSSGVHTFPAVLQSDLYTLSSSVTVPSSTWPSETVTCNVAHPASSTKVDKKIVPRDCGCKPCICTVPEVSSVFIFPPKPKDVLTITLTPKVTCVVVDISKDDPEVQFSWFVDDVEVHTAQTQPREEQFNSTFRSVSELPIMHQDWLNGKEFKCRVNSAAFPAPIEKTISKTKGRPKAPQVYTIPPPKEQMAKDKVSLTCMITDFFPEDITVEWQWNGQPAENYKNTQPIMDTDGSYFVYSKLNVQKSNWEAGNTFTCSVLHEGLHNHHTEKSLSHSPGK
light: QSVLTQPPSASGTPGQRVTISCSGSSSNIGSNYVSWYQQLPGTAPKLLIYYDDLRPSGVPDRFSGSKSGTSASLAISGLRSEDEADYYCSAWDDSLSGVVFGGGTKLTVLGQPKSSPSVTLFPPSSEELETNKATLVCTITDFYPGVVTVDWKVDGTPVTQGMETTQPSKQSNNKYMASSYLTLTARAWERHSSYSCQVTHEGHTVEKSLSRADCS
notes: mIgG1, Lambda
Antibody/Isotype Control Ratio of IL-2Ra Binding Signals (human IL2Ra): 0.7 ratio | Efficacy (%), Stat3 reporter gene assay (human IL-11 [1]): 100% | IC50, Stat3 reporter gene assay (human IL-11 [1]): 1.8 nM | Efficacy (%), Stat3 reporter gene assay (rat IL-11 [2]): 99.7% | IC50, Stat3 reporter gene assay (rat IL-11 [2]): 1 nM | Efficacy (%), Stat3 reporter gene assay (murine IL-11 [3]): 101% | IC50, Stat3 reporter gene assay (murine IL-11 [3]): 1.2 nM | Efficacy (%), Stat3 reporter gene assay (cynomolgus IL-11 [4]): 99.2% | IC50, Stat3 reporter gene assay (cynomolgus IL-11 [4]): 0.89 nM | Kd (human IL-11 [5]): 0.01 nM | Kd (rat IL-11 [6]): 0.023 nM | Kd (murine IL-11 [7]): 0.0035 nM | Kd (cynomolgus IL-11 [8]): 0.61 nM

B2: TPP-29528 (antibody, mouse IgG1)
heavy: EVQLLESGGGLVQPGGSLRLSCAASGFTFSSYGMHWVRQAPGKGLEWVAVISYDGSYKYYADSVKGRFTISRDNSKNTLYLQMNSLRAEDTAVYYCAAGVPDYWGQGTLVTVSSAKTTPPSVYPLAPGSAAQTNSMVTLGCLVKGYFPEPVTVTWNSGSLSSGVHTFPAVLQSDLYTLSSSVTVPSSTWPSETVTCNVAHPASSTKVDKKIVPRDCGCKPCICTVPEVSSVFIFPPKPKDVLTITLTPKVTCVVVDISKDDPEVQFSWFVDDVEVHTAQTQPREEQFNSTFRSVSELPIMHQDWLNGKEFKCRVNSAAFPAPIEKTISKTKGRPKAPQVYTIPPPKEQMAKDKVSLTCMITDFFPEDITVEWQWNGQPAENYKNTQPIMDTDGSYFVYSKLNVQKSNWEAGNTFTCSVLHEGLHNHHTEKSLSHSPGK
light: QSVLTQPPSASGTPGQRVTISCSGSSSNIGSDYDVHWYQQLPGTAPKLLIYSNEERPSGVPDRFSGSKSGTSASLAISGLRSEDEADYYCSAWDSSLSGPVFGGGTKLTVLGQPKSSPSVTLFPPSSEELETNKATLVCTITDFYPGVVTVDWKVDGTPVTQGMETTQPSKQSNNKYMASSYLTLTARAWERHSSYSCQVTHEGHTVEKSLSRADCS
notes: mIgG1, Lambda
Antibody/Isotype Control Ratio of IL-2Ra Binding Signals (human IL2Ra): 24.2 ratio | Efficacy (%), Stat3 reporter gene assay (human IL-11 [1]): 81.2% | Efficacy (%), Stat3 reporter gene assay (rat IL-11 [2]): 89.9% | IC50, Stat3 reporter gene assay (rat IL-11 [2]): 1.8 nM | Efficacy (%), Stat3 reporter gene assay (murine IL-11 [3]): 96.9% | IC50, Stat3 reporter gene assay (murine IL-11 [3]): 0.89 nM | Efficacy (%), Stat3 reporter gene assay (cynomolgus IL-11 [4]): 87.8% | IC50, Stat3 reporter gene assay (cynomolgus IL-11 [4]): 0.44 nM | Kd (human IL-11 [5]): 0.34 nM | Kd (rat IL-11 [6]): 0.33 nM | Kd (murine IL-11 [7]): 0.23 nM | Kd (cynomolgus IL-11 [8]): 0.2 nM
